The target of one assay is CD22 (UniProt P20273). As to the kind of experiment: Malibu-Glo assay; NLuc fusion supernatant on RAJI cells, control K562 cells.
Another assay deals with CD33 (UniProt P20138). As to the kind of experiment: Malibu-Glo assay; NLuc fusion supernatant on HL60 cells, control Jurkat cells.
Sequence of CD33 (P20138 18-364 limits assumed): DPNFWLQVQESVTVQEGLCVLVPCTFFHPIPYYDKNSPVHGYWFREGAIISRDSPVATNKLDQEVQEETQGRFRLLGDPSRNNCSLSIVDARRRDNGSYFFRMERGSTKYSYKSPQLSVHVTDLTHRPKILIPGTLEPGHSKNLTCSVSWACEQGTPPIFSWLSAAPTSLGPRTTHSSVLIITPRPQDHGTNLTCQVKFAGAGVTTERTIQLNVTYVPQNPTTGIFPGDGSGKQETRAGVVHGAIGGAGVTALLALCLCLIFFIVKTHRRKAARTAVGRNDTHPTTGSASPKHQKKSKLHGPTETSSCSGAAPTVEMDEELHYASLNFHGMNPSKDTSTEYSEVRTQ

Sequence of CD22 (P20273 20-847 limits assumed): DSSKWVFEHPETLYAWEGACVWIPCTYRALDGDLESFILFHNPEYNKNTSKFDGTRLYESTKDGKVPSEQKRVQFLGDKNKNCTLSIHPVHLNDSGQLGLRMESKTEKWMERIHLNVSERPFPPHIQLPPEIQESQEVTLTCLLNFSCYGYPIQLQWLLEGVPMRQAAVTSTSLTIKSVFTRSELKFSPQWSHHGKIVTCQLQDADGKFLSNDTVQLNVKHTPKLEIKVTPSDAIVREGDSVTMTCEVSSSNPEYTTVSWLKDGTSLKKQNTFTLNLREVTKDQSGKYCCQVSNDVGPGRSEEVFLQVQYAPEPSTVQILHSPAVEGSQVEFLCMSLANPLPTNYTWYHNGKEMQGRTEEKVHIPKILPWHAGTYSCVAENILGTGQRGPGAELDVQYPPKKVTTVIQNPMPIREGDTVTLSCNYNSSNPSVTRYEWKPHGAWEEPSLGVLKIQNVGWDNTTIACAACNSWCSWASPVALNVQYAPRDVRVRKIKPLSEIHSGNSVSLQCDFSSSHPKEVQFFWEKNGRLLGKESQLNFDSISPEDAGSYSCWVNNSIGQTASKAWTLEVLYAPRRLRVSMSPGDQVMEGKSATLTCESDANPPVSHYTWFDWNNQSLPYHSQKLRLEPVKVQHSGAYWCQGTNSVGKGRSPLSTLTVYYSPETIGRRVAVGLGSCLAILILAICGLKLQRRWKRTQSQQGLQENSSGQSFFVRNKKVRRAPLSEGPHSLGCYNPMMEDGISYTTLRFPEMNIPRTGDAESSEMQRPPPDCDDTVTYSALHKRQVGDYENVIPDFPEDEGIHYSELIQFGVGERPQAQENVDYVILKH

B1: hu-077-USC1 vHH (CD22), NLuc fusion (VHH, part only; not given: NLuc luciferase fusion partner, part only)
VHH, part: QVQLQESGPGLVKPSQTLSLTCTVSGGSITTGEFYWNWFRQPPGKGLEWMGAIAASGSTTYSPSFESRTSISRDTSKNQFSLKLSSVTAADTAVYYCGRSFGVAAVTTGQNRGQGTLVTVSS
In the case of B1, the Fold Change (Luc activity, target cell line over control cell line) in the assay with CD22 was 4.32 fold.

B2: hA873-G30S vHH (CD33), NLuc fusion (VHH, part only; not given: NLuc luciferase fusion partner, part only)
VHH, part: QVQLVESGGGVVQPGRSLRLSCVASGYTYSINCMGWFRQAPGKGREGIAAISTGGGTTGVADSVKGRFTISQDNAKNTVYLQMNSLRAEDTAMYYCAARSTYSGYACVYSEVNGYNYRGQGTQVTVSS
B2 showed a Fold Change (Luc activity, target cell line over control cell line) with CD33 of 17 fold.

The record behind these values is patent US20260226133A1.
